A short description of the data set: protein stability index of a GFP-peptide fusion (GPS, HEK-293T) (PSI 1-6); higher = more stable. As to conditions: c terminus: a fixed tail appended.

± gives the standard deviation.
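Also: 24-mer peptide tiles fused after GFP, lentivirally expressed, FACS-sorted into six equal bins by GFP/DsRed ratio, decoded by Illumina sequencing, PSI is the read-weighted mean bin number.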

For EYMKNLLKVGGILVMPLEEKLTKI [PCMTD2], the protein stability index amounted to 2.73 ± 0.36 (treatment: DMSO) and 2.13 ± 0.33 (treatment: MLN4924 1 uM, 8 h).
Take EYVAIKLEPMKSRAPQLHLEYRFY [CSNK1G3]: the protein stability index was 3.3 ± 0.41 (treatment: DMSO) and 2.93 ± 0.64 (treatment: MLN4924 1 uM, 8 h).
The matching figures for FAWPFYQPVDAIKLNLPDYHKIIK [BRD3]: 2.24 ± 0.67 and 2.19 ± 0.25.
The corresponding values for FDDGDDIMATLGFGDSPKAEKRQI [FBF1] are 3.97 ± 0.24 and 4.32 ± 0.19.
The corresponding values for FDDYSATLPLTLIVILENIAVAWI [SLC6A17] are 2.69 ± 0.44 and 3.28 ± 0.71.
As for FEEFLVMMVRQMKEDAKGKSEEEL [TNNC2], the protein stability index came to 3.48 ± 0.37 (treatment: DMSO) and 3.28 ± 0.35 (treatment: MLN4924 1 uM, 8 h).
FFPWREAKPGSTEKGLPLRKTHVL [MFSD9]: the protein stability index reads like this: (treatment: DMSO) 2.72 ± 0.28; (treatment: MLN4924 1 uM, 8 h) 2.82 ± 0.076.
The corresponding values for FGNRIKVLRSRIRFIHLVTGCVLG [POMT2] are 2.57 ± 0.38 and 2.23 ± 0.45.
The matching figures for FGPDSKSSALACTLPTLPAKVYVG [NCF4]: 2.74 ± 0.12 and 3.03 ± 0.43.
The corresponding values for FGSSVPEKQSRCVNIEWHRFRFGQ [WSB1] are 2.07 ± 0.34 and 2.12 ± 0.24.
Take FIEALIQQYQEQLDKSTKLVETAI [TRIM63]: the protein stability index was 2.66 ± 0.52 (treatment: DMSO) and 2.14 ± 0.39 (treatment: MLN4924 1 uM, 8 h).
The corresponding values for FISRTSIPNAASEEGDEDDWASNK [WEE1] are 4.3 ± 0.32 and 4.73 ± 0.31.
Consider FKHILRTEGAFGLYRGLAPNFMKV [SLC25A25], for which the protein stability index reads like this: (treatment: DMSO) 2.18 ± 0.31; (treatment: MLN4924 1 uM, 8 h) 2.29 ± 0.32.
The matching figures for FLFAKLFSHITSARKARKYEIPHF [PHTF1]: 3 ± 0.43 and 2.79 ± 0.62.
The corresponding values for FLPFLLCAVLLSAVQAQAGWLQHD [FADS1] are 2.73 ± 0.23 and 3.02 ± 0.66.
The corresponding values for FLTILPEELQSWVRGHHPKSGEEA [ZNF232] are 3.7 ± 0.18 and 3.56 ± 0.35.
For FPKDTLMNLHVYISEHEHFTDFNA [CLPTM1], the protein stability index was determined as 2.37 ± 0.24 (treatment: DMSO) and 1.99 ± 0.42 (treatment: MLN4924 1 uM, 8 h).
FPSAGQAQAAVQGPVGTDFKPLNS [ZNF207]: the protein stability index (treatment: DMSO) came to 3.67 ± 0.45 and the protein stability index (treatment: MLN4924 1 uM, 8 h) stood at 4.16 ± 0.4.
The corresponding values for FRLKTINLQSLINNEIPDCYTFSV [MCOLN1] are 2.76 ± 0.41 and 2.51 ± 0.39.
The matching figures for FRLLNLKNDSLRKRYDGLKYDVKK [TSN]: 2.85 ± 0.21 and 2.94 ± 0.32.
The matching figures for FRRFAVHGDARATGREMHGKNWSK [TPPP]: 3.62 ± 0.12 and 3.65 ± 0.33.
FSAYIDSMAAVPTLELCHDELFAD [CEBPD] gave a protein stability index (treatment: DMSO) of 3.29 ± 0.37 and a protein stability index (treatment: MLN4924 1 uM, 8 h) of 3.1 ± 0.3.
The matching figures for FSGCLNCSKVSELTERLKVLEAKM [EMID1]: 2.83 ± 0.29 and 2.926 ± 0.029.
The matching figures for FSGDGEYIVAGSARQHALYIWEKS [RBBP5]: 2.59 ± 0.32 and 2.57 ± 0.32.
With FSGRMEVLTDSEGWILIDRCGKHF [KCTD10], the protein stability index stood at 2.57 ± 0.28 (treatment: DMSO) and 2.77 ± 0.4 (treatment: MLN4924 1 uM, 8 h).
The corresponding values for FTKANFWYQPSFHGVDLSALRGAA [CARM1] are 2.38 ± 0.83 and 1.92 ± 0.3.
The matching figures for FVAENSSLHPESGQENDATSPHFS [CD69]: 3.74 ± 0.56 and 4.23 ± 0.42.
The matching figures for FVEKNPTIVNFPITNVDLREYLSE [USP39]: 2.73 ± 0.66 and 3.01 ± 1.
Take FVHGLEDEMYEVRIAAVEALCMLA [INTS4]: the protein stability index by setting is: (treatment: DMSO) 2.34 ± 0.61; (treatment: MLN4924 1 uM, 8 h) 2.23 ± 0.46.
The matching figures for FVQDVLFVLQAIGIPGWGFSGWIS [SCAMP3]: 3.33 ± 0.35 and 2.73 ± 0.33.
The matching figures for GAAGRSHHLDEDEERERIERVRRI [KCTD10]: 5.31 ± 0.23 and 5.07 ± 0.46.
The corresponding values for GAFLRTCLLSSNSRSLLTGGYNLA [TLE6] are 2.72 ± 0.32 and 2.79 ± 1.1.
Consider GAPSVGQPGAGFGMPPAGTGMPMM [SNAP91], for which the protein stability index is, setting by setting: (treatment: DMSO) 3.61 ± 0.23; (treatment: MLN4924 1 uM, 8 h) 3.76 ± 0.23.
Turning to GARLGGFNFVSTPKCSCGQLAAVH [RNF180], the protein stability index was 2.36 ± 0.55 (treatment: DMSO) and 2.54 ± 0.21 (treatment: MLN4924 1 uM, 8 h).
For GDIASGYHYGVASCEACKAFFKRT [ESRRG], the protein stability index (treatment: DMSO) was 2.76 ± 0.38 and the protein stability index (treatment: MLN4924 1 uM, 8 h) is 3.02 ± 0.41.
GDLSPGHGASAPSVSREARQTVPP [PWWP2B]: the protein stability index reads like this: (treatment: DMSO) 5.03 ± 0.17; (treatment: MLN4924 1 uM, 8 h) 5.25 ± 0.077.
The matching figures for GDVHTVRKMLEQGYSPNGRDANGW [ASB7]: 3.51 ± 0.23 and 3.71 ± 0.24.
The corresponding values for GEAAGSSLIGHLQTLSPDMQGAYC [DUSP5] are 3.82 ± 0.34 and 3.87 ± 0.26.
As for GEFPSPVSISIISSTSGGSGYGFR [KRT71], the protein stability index by setting is: (treatment: DMSO) 2.65 ± 0.34; (treatment: MLN4924 1 uM, 8 h) 3.04 ± 0.64.
The corresponding values for GEGLRIYWGSPEEQSLLSRWNPWS [TPRG1] are 2.28 ± 0.2 and 1.9 ± 0.35.
As for GEKEEEDKDDEEKPKIEDVGSDEE [HSP90AB1], the protein stability index amounted to 5.6 ± 0.24 (treatment: DMSO) and 5.77 ± 0.12 (treatment: MLN4924 1 uM, 8 h).
The corresponding values for GEPLEKVASVGNSRPTGQQLESLG [KISS1] are 5.04 ± 0.25 and 5.1 ± 0.13.
GFENMDFFTLDLEHIADALRAIDF [TRIM63]: the protein stability index reads like this: (treatment: DMSO) 2.11 ± 0.17; (treatment: MLN4924 1 uM, 8 h) 2.25 ± 0.35.
The matching figures for GGGFGGGSCQLGGGRGVSTCSTRF [KRT13]: 3.5 ± 0.17 and 3.59 ± 0.21.
The matching figures for GGLIYWIGLTKAGMEGDWSWVDDT [CD207]: 2.12 ± 0.7 and 3.07 ± 1.4.
The matching figures for GGQITDEMAEQLMTLAYDNGINLF [KCNAB2]: 2.79 ± 0.17 and 2.9 ± 0.35.
As to GGRPGGRGAPAVQQNIPSTLLQDH [WAS], the protein stability index runs as follows: (treatment: DMSO) 4.81 ± 0.13; (treatment: MLN4924 1 uM, 8 h) 4.77 ± 0.23.
The matching figures for GGSHPSRPNSRHTPSFSGDSSSSC [VDR]: 4.75 ± 0.28 and 4.73 ± 0.19.
The corresponding values for GGYAIAVVLLQGAELLLAARLLGA [TSPAN10] are 2.81 ± 0.53 and 2.96 ± 0.32.
The corresponding values for GHDKCVSWMCTRSGNMLGRHFFTS [WDFY1] are 2.35 ± 0.36 and 2.35 ± 0.18.
Regarding GHIILNSMHKYQPRLHIVKADENN [TBX5], the protein stability index is, setting by setting: (treatment: DMSO) 2.82 ± 0.48; (treatment: MLN4924 1 uM, 8 h) 2.95 ± 0.018.
As for GHMLQHHGNSGHPLVLSYIDLSAW [HDAC6], the protein stability index was found to be 2.24 ± 0.33 (treatment: DMSO) and 1.85 ± 0.19 (treatment: MLN4924 1 uM, 8 h).
As to GIGDMAFEGDMGAAGGDGELGSPL [PSD2], the protein stability index runs as follows: (treatment: DMSO) 5.37 ± 0.25; (treatment: MLN4924 1 uM, 8 h) 5.46 ± 0.16.
